Data set [1] deals with T1, Spo0J R82A R82A (Bacillus subtilis) (UniProt P26497).
T1 sequence: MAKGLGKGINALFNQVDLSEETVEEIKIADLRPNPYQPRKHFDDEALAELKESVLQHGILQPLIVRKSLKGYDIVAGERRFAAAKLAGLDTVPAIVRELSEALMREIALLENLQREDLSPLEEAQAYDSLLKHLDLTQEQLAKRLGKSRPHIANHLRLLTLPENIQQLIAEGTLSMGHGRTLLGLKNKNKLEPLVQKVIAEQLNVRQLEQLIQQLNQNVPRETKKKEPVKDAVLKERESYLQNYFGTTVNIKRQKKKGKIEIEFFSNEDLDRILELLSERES
The data set is described as follows: single-molecule PIFE kinetics, koff/kon. The note with it: 150 mM NaCl, kon 2.1±0.2e6 M-1 s-1, koff 0.16±0.01 s-1, Cy3-dUTP randomly incorporated, about 1 per kb, PIFE: 20 mM Tris pH 7.5, 100 ug/ml BSA, 100 mM NaCl (150 mM for Spo0J R82A Kd), flow 100 ul/min, BLItz: 20 mM Tris pH 7.5, 150 mM NaCl, 0.02% ….

Data set [2] deals with HBsu (Bacillus subtilis). Briefly: single-molecule PIFE and DNA length, two-state model. To be noted: Cy3-dUTP randomly incorporated, about 1 per kb, PIFE: 20 mM Tris pH 7.5, 100 ug/ml BSA, 100 mM NaCl (150 mM for Spo0J R82A Kd), flow 100 ul/min, BLItz: 20 mM Tris pH 7.5, 150 mM NaCl, 0.02% ….
Data set [3] deals with T1, Spo0J R82A R82A (Bacillus subtilis). Briefly: single-molecule PIFE, steady state, Hill fit (n=0.8±0.2). The note with it: 150 mM NaCl, apparent Kd, Cy3-dUTP randomly incorporated, about 1 per kb, PIFE: 20 mM Tris pH 7.5, 100 ug/ml BSA, 100 mM NaCl (150 mM for Spo0J R82A Kd), flow 100 ul/min, BLItz: 20 mM Tris pH 7.5, 150 mM NaCl, 0.02% ….

In the case of 20-kb Cy3-labelled DNA, the Kd turned out to be 76.2 nM in data set [1]; 13 nM in data set [2] (K1, high-affinity bending mode, first dimer); 390 nM in data set [2] (K2, low-affinity filament mode, second dimer); 60.5 nM in data set [3].

Values taken from article PMC4786781.
